Source: patent US20190185568A1 (FUSO PHARMACEUTICAL INDUSTRIES, published 2019)

Experiments:
[1] = target: T1, bovine FcγRII-His (soluble extracellular region with 6xHis tag) (bovine, UniProt Q28110 43-225); assay: ELISA: antibody immobilized at 1.56 to 50 nM, bovine FcγRII-His added at 10 µg/ml, anti-polyhistidine detection [B]
T1 construct: extracellular domain; also called boFcγRII-His
T1 sequence: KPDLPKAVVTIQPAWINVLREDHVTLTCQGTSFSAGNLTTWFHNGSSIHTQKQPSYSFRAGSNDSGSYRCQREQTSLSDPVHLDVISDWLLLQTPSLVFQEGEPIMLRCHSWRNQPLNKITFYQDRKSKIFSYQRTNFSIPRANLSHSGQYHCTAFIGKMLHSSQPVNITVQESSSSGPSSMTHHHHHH
Description: (§1) Subsequently, each well was washed with […] of 0.05% Tween 20-supplemented PBS (PBS-T) five times, followed by blocking with SuperBlock (PBS) Blocking Buffer (Thermo Fisher Scientific) at 37° C. for 30 min, Each well was washed again in the same manner. Then, bovine FcγRI-His, FcγRII-His, FcγRIII-His or Fcγ2R-His was added to each well at a final concentration of 10 μg/ml and reacted at 37° C. for 1 hr. After washing, anti-polyhistidine tag mouse monoclonal antibody (Abeam) was reacted at 37° C. for 30 min. Subsequently, each well was washed, and horseradish peroxidase-labeled anti-mouse IgG goat polyclonal antibody (MP Biomedicals) was reacted at 37° C. for 30 min. Each well was washed again, and then TMB One Component Substrate (Bethyl) was added for coloring. Thereafter, the enzyme reaction was terminated with 0.18 M dilute sulfuric acid, and absorbance (450 nm) was measured with Microplate Reader MTP-900 (Corona Electric), For every plate washing operation, Auto Plate Washer BIO WASHER 50 (DS Pharma Biomedical) was used.

[2] = target: T2, bovine FcγRI-His (soluble extracellular region with 6xHis tag) (bovine); assay: ELISA: antibody immobilized at 1.56 to 50 nM, bovine FcγRI-His added at 10 µg/ml, anti-polyhistidine detection [A]
T2 construct: extracellular domain; also called boFcγRI-His; not shown: limits not st
Description: as §1

[3] = target: T3, bovine PD-1-His (soluble bovine PD-1 extracellular region with 6xHis tag) (bovine); assay: SPR (Biacore X100), bovine PD-1-His immobilized on CM5 chip, antibody as analyte, single kinetics, n=3
T3 chain: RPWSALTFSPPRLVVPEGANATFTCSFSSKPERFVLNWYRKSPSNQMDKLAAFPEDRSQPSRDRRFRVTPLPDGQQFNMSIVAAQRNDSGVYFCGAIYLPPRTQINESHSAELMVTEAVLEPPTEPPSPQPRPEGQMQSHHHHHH
Description: The binding avidities to bovine PD-1 of rat anti-bovine PD-1 antibody 5D2 and rat-bovine chimeric anti-bovine PD-1 antibody ch5D2 were measured by surface plasmon resonance using a bimolecular interaction analyzer (Biacore X100). Briefly, bovine PD-1-His (described above) was immobilized on a CM5 sensor chip (GE Healthcare) as a ligand. Subsequently, rat anti-bovine PD-1 antibody 5D2 or rat-bovine chimeric anti-bovine PD-1 antibody ch5D2 was reacted as an analyte, followed by single kinetics analysis. The experiment was repeated 3 times under the same conditions. Binding constant (kd value) and dissociation constant (ka value) were determined in each experiment, and binding avidity (KD value) was obtained.

B1: rat-bovine chimeric anti-bovine PD-1 antibody ch5D2 having wild-type bovine IgG1 (IgG1 WT) (antibody)
heavy: QVQLKETGPGLVQPTQTLSITCTVSGFSLTSYYIQWVRQTPGKGLEWMGFIRSGGSTEYNSEFKSRLSINRDTSKNQVFLKMNSLKTEDTGVYYCARTSSGYEGGFDYWGQGVMVTVSSASTTAPKVYPLSSCCGDKSSSTVTLGCLVSSYMPEPVTVTWNSGALKSGVHTFPAVLQSSGLYSLSSMVTVPGSTSGQTFTCNVAHPASSTKVDKAVDPTCKPSPCDCCPPPELPGGPSVFIFPPKPKDTLTISGTPEVTCVVVDVGHDDPEVKFSWFVDDVEVNTATTKPREEQFNSTYRVVSALRIQHQDWTGGKEFKCKVHNEGLPAPIVRTISRTKGPAREPQVYVLAPPQEELSKSTVSLTCMVTSFYPDYIAVEWQRNGQPESEDKYGTTPPQLDADSSYFLYSKLRVDRNSWQEGDTYTCVVMHEALHNHYTQKSTSKSAGK
light: DVVLTQTPVSLSVTLGDQASISCRSSQSLEYSDGYTYLEWYLQKPGQSPQLLIYGVSNRFSGVPDRFIGSGSGTDFTLKISRVEPEDLGVYYCFQATHDPDTFGAGTKLELKQPKSPPSVTLFPPSTEELNGNKATLVCLISDFYPGSVTVVWKADGSTITRNVETTRASKQSNSKYAASSYLSLTSSDWKSKGSYSCEVTHEGSTVTKTVKPSECS
notes: also called ch5D2 IgG1 WT
binding result [1]: binds
EC50 (read off the curve) [2]: ~9 nM

B2: rat-bovine chimeric anti-bovine PD-1 antibody ch5D2 (mutated bovine IgG1, IgG1 ADCC-) (antibody)
heavy: QVQLKETGPGLVQPTQTLSITCTVSGFSLTSYYIQWVRQTPGKGLEWMGFIRSGGSTEYNSEFKSRLSINRDTSKNQVFLKMNSLKTEDTGVYYCARTSSGYEGGFDYWGQGVMVTVSSASTTAPKVYPLSSCCGDKSSSTVTLGCLVSSYMPEPVTVTWNSGALKSGVHTFPAVLQSSGLYSLSSMVTVPGSTSGQTFTCNVAHPASSTKVDKAVDPTCKPSPCDCCPPPPVAGPSVFIFPPKPKDTLTISGTPEVTCVVVDVGHDDPEVKFSWFVDDVEVNTATTKPREEQFNSTYRVVSALRIQHQDWTGGKEFKCKVHNEGLPSSIVRTISRTKGPAREPQVYVLAPPQEELSKSTVSLTCMVTSFYPDYIAVEWQRNGQPESEDKYGTTPPQLDADSSYFLYSKLRVDRNSWQEGDTYTCVVMHEALHNHYTQKSTSKSAGK
light: DVVLTQTPVSLSVTLGDQASISCRSSQSLEYSDGYTYLEWYLQKPGQSPQLLIYGVSNRFSGVPDRFIGSGSGTDFTLKISRVEPEDLGVYYCFQATHDPDTFGAGTKLELKQPKSPPSVTLFPPSTEELNGNKATLVCLISDFYPGSVTVVWKADGSTITRNVETTRASKQSNSKYAASSYLSLTSSDWKSKGSYSCEVTHEGSTVTKTVKPSECS
notes: Rat 5D2 variable regions on bovine IgG1 (modified from GenBank X62916) and bovine Ig lambda (X62917); also called ch5D2 IgG1 ADCC-
binding result [1]: no binding (tested: 50 nM)
Kd [3]: 10.5 nM
koff [3]: 0.000216 s⁻¹
kon [3]: 20700 M⁻¹ s⁻¹

B3: rat anti-bovine PD-1 monoclonal antibody 5D2 (antibody, V domains shown)
VH: QVQLKETGPGLVQPTQTLSITCTVSGFSLTSYYIQWVRQTPGKGLEWMGFIRSGGSTEYNSEFKSRLSINRDTSKNQVFLKMNSLKTEDTGVYYCARTSSGYEGGFDYWGQGVMVTVSS
VL: DVVLTQTPVSLSVTLGDQASISCRSSQSLEYSDGYTYLEWYLQKPGQSPQLLIYGVSNRFSGVPDRFIGSGSGTDFTLKISRVEPEDLGVYYCFQATHDPDTFGAGTKLELK
notes: Rat monoclonal antibody from a hybridoma; Rat IgG2a (kappa) was used as its isotype control; also called rat anti-bovine PD-1 antibody 5D2
Kd [3]: 12.2 nM
koff [3]: 0.000215 s⁻¹
kon [3]: 18400 M⁻¹ s⁻¹
